22 molecules from patent publication US20100041068A1, “DEEPLY QUENCHED ENZYME SENSORS AND BINDING SENSORS” (priority 2006, published 2010) can be followed below.

Assay [1] deals with 14-3-3τ (phospho-Ser binding domain) (UniProt P27348). Briefly: cell-based or functional assay.
Assay [2] has as its target peptide P2. Briefly: Apparent KD of lead quencher dyes with peptide P2 (quenching of pyrene fluorescence). It is filed as binding. To be noted: 5 μM pyrene-labeled P2 peptide, dye 0.5-500 μM, 100 mM Tris HCl pH 75, inner filter corrected. The protocol:
KD values were acquired for the set of the ten lead quenchers with peptide P2, in order to obtain a target range for the quencher:peptide ratios to be employed in the subsequent assays (vide infra). These apparent KD values were determined using the quenching of pyrene fluorescence as a barometer of peptide/quencher complex stability. […] An inner filter effect (at high dye concentrations) was corrected as previously described^8.
Acquisition of Apparent KD Values for Lead Quencher Dyes with Peptide P2 (FIG. 2).

Assay [3] addresses phosphorylated P5 peptide AcDap(Pyr)RTGRRFS(PO3^2−)YP-amide. As to the kind of experiment: Apparent KD of Rose Bengal with phosphorylated P5 peptide. It counts as binding.
The target of assay [4] is peptide P5. Briefly: Apparent KD of lead quencher/peptide pair, Rose Bengal with peptide P5. It counts as binding.
For assay [5], the target named is T1, cAMP-dependent protein kinase (PKA) (Mus musculus, UniProt P05132). As to the kind of experiment: Control: phosphorylation-induced change in fluorescence of pyrene-labeled peptides in the absence of quenching dye. It counts as biochemical, murine. On the set-up: made in house. The conditions noted are these: 5 μM peptide, 10 nM PKA, 10 μM 14-3-3τ, 1 mM ATP. On the procedure: 2 Identification of the lead pyrene-peptide/quencher pair. The eleven pyrene-substituted peptides (P1-P11 at 5 μM) were incubated with a 5-, 10-, 25-, and 50-fold molar excess of each of the ten lead quenchers in the presence of PKA, ATP, and the phospho-Ser binding domain 14-3-3τ. Several control experiments were performed, including conducting the assay in the absence of quenching agent. Under the latter conditions, only small enhancements in fluorescence (0-64%) were observed (Supporting Information). […] Consequently, the background was subtracted from all readings to establish a baseline upon which changes in fluorescence intensity could be quantified (Supporting Information).
Screening of Lead Quenching Dyes 1-10 with […]. […] The concentrations per well were: 10 nM PKA, 5 μM peptide, 10 μM 14-3-3τ, 1 mM ATP, 5 mM MgCl2, 2 mM DTT, and 25 μM, 50 μM, […] each of 10 different lead dyes in 50 mM Tris at pH 7.5 buffer. The HTS 7000 Bio Assay Reader was set in kinetic mode to monitor the progress of reaction (340 nm excitation filter, […] emission filter, 100 μs and 5 flashes).

Assay [6] deals with T1, cAMP-dependent protein kinase (PKA). As to the kind of experiment: PKA inhibitor IC50, Deep Quench method (Ponceau S/peptide P2, 14-3-3τ). It counts as biochemical, murine. On the set-up: made in house. The conditions noted are these: [ATP]=1 mM, 1 μM P2, 60 μM Ponceau S, 10 nM PKA. On the procedure:
This step was used to adjust for inter-assay variability and to verify that no significant drop in enzyme activity occurs over the course of the determinations. Subsequently, inhibitor was added at different concentrations. […] Fractional velocities (v/v0) were plotted against inhibitor concentration [I] and fit using the Sigma Plot version 8.02 software's four-parameter logistic nonlinear regression analysis.

The target is the same in assay [7]. As to the kind of experiment: PKA inhibitor IC50, standard radioactive ATP method. It counts as biochemical.
Assay [8] deals with T2, 14-3-3τ (phospho-Ser binding domain) (UniProt P27348 1-245).
T2 sequence (looked up): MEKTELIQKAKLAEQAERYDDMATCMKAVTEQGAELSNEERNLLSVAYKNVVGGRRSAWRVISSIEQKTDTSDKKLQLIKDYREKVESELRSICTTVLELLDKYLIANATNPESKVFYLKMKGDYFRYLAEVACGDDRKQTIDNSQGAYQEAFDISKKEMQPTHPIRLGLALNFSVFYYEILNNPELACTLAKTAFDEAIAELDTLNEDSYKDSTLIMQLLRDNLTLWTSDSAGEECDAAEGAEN
As to the kind of experiment: cell-based or functional assay.

Non-standard residues stand in square brackets, D forms with d. Primed or numbered codes have the meaning given here. No end group written: not given here. *: point of attachment. Acetyl(1-pyrenyl) = O=C(Cc1ccc2ccc3cccc4ccc1c2c34)*; Aoc′ = aminooctanoic acid linker; pS = N[C@@H](COP(=O)(O)O)C(=O)O; Abu = CC[C@H](N)C(=O)O; AEEA = NCCOCCOCC(=O)O; Ava = NCCCCC(=O)O; βAla = NCCC(=O)O

“phosphorylated peptide P5, AcDap(Pyr)RTGRRFS(PO3^2-)YP-amide”: in assay [1], the % Fluorescence Enhancement (phosphorylation-induced, PKA + ATP + 14-3-3τ, no quenching dye) was 64%; the Fluorescence Change (phosphorylation-induced fold-change), P5/Rose Bengal (1:5), plate reader - bottom read turned out to be 8 fold; the Fluorescence Change (phosphorylation-induced fold-change), P5/Rose Bengal (1:5), plate reader - top read worked out at 30 fold; the Fluorescence Change (phosphorylation-induced fold-change), P5/Rose Bengal (1:5), spectrofluorimeter turned out to be 64 fold. Turning to `O=C(O)c1c(Cl)c(Cl)c(Cl)c(Cl)c1-c1c2cc(I)c(=O)c(I)c-2oc2c(I)c(O)c(I)cc12` [Peptide D43, Rose Bengal], the Kd stood at 7.5 ± 1.6 µM in assay [2], 0.21 ± 0.04 µM in assay [3], 0.4 ± 0.03 µM in assay [4] (Rose Bengal with unphosphorylated AcDap(Pyr)RTGRRFSYP-amide (P5)) and 0.4 ± 0.03 µM in assay [4] (Rose Bengal with unphosphorylated peptide P5).

With `Cc1cc(-c2ccc(/N=N/c3c(S(=O)(=O)O)cc4cc(S(=O)(=O)O)cc(N)c4c3O)c(C)c2)ccc1/N=N/c1c(S(=O)(=O)O)cc2cc(S(=O)(=O)O)cc(N)c2c1O` [Peptide D48, Trypan Blue], the Kd in assay [2] came out at 11.9 ± 3.6 µM. The same measure, in the same setting: the value for `O=C(O)c1nn(-c2ccc(S(=O)(=O)O)cc2)c(O)c1N=Nc1ccc(S(=O)(=O)O)cc1` [Peptide D47, Tartrazine] was 15 ± 2.1 µM. Consider “Ac-Gly-Arg-Thr-Gly-Arg-Arg-Phe-Ser-Dap(Pyr)-Pro-amide [Peptide P1]”, for which, in assay [5], the “% Fluorescence Enhancement” value was found to be 0%. Same read-out and setting: as for “Pyr-miniPEG™-Gly-Arg-Thr-Gly-Arg-Arg-Phe-Ser-Tyr-Pro-amide ({Acetyl(1-pyrenyl)-AEEA}-GRTGRRFSYP-NH2; SMILES C[C@@H](O)[C@H](NC(=O)[C@H](CCCNC(=N)N)NC(=O)CNC(=O)COCCOCCNC(=O)Cc1ccc2ccc3cccc4ccc1c2c34)C(=O)NCC(=O)N[C@@H](CCCNC(=N)N)C(=O)N[C@@H](CCCNC(=N)N)C(=O)N[C@@H](Cc1ccccc1)C(=O)N[C@@H](CO)C(=O)N[C@@H](Cc1ccc(O)cc1)C(=O)N1CCC[C@H]1C(N)=O) [Peptide P11]”, the figure is 38%. For the molecule Reactive Blue 2 [Peptide D6], the Kd in assay [2] came to 19.6 ± 3.4 µM.

With `O=[N+]([O-])c1ccc2c(N=Nc3ccc4ccccc4c3O)c(O)cc(S(=O)(=O)O)c2c1` [Peptide D18, Eriochrome Black T], the Kd in assay [2] is 14.3 ± 3.3 µM. Turning to “Pyr-Ava-Gly-Arg-Thr-Gly-Arg-Arg-Phe-Ser-Tyr-Pro-amide ({Acetyl(1-pyrenyl)-Ava}-GRTGRRFSYP-NH2; SMILES C[C@@H](O)[C@H](NC(=O)[C@H](CCCNC(=N)N)NC(=O)CNC(=O)CCCCNC(=O)Cc1ccc2ccc3cccc4ccc1c2c34)C(=O)NCC(=O)N[C@@H](CCCNC(=N)N)C(=O)N[C@@H](CCCNC(=N)N)C(=O)N[C@@H](Cc1ccccc1)C(=O)N[C@@H](CO)C(=O)N[C@@H](Cc1ccc(O)cc1)C(=O)N1CCC[C@H]1C(N)=O) [Peptide P8]”, the “% Fluorescence Enhancement” value in assay [5] is recorded as 31%. For `Nc1ccc(N=Nc2ccc(-c3ccc(N=Nc4c(S(=O)(=O)O)cc5cc(S(=O)(=O)O)c(N=Nc6ccccc6)c(O)c5c4N)cc3)cc2)c(N)c1` [Peptide D34, Chlorazol Black E], the Kd in assay [2] was 7.7 ± 1.5 µM. Regarding “Pyr-Aoc-Gly-Arg-Thr-Gly-Arg-Arg-Phe-Ser-Tyr-Pro-amide ({Acetyl(1-pyrenyl)-Aoc′}-GRTGRRFSYP-NH2) [Peptide P10]”, the “% Fluorescence Enhancement” value in assay [5] is given as 39%. The same measure, in the same setting: as for “Ac-Gly-Arg-Thr-Dap(Pyr)-Arg-Arg-Phe-Ser-Tyr-Pro-amide [Peptide P3]”, the figure is 19%. As for “phosphorylated peptide P3, Ac-GRTDap(Pyr)RRFSYP-amide after phosphorylation of Ser by PKA”, the % Fluorescence Enhancement (phosphorylation-induced, PKA + ATP + 14-3-3τ, no quenching dye) in assay [1] worked out at 19%. Take `O=S(=O)(O)c1ccc(/N=N/c2ccc(/N=N/c3c(O)c(S(=O)(=O)O)cc4cc(S(=O)(=O)O)ccc34)c(S(=O)(=O)O)c2)cc1` [Peptide D42, Ponceau S]: the Kd in assay [2] was determined as 11.2 ± 2.7 µM. As to “phosphorylated peptide P4, Ac-GRDap(Pyr)GRRFSYP-amide after phosphorylation of Ser by PKA”, the % Fluorescence Enhancement (phosphorylation-induced, PKA + ATP + 14-3-3τ, no quenching dye) in assay [1] is 40%. “Pyr-BAla-Gly-Arg-Thr-Gly-Arg-Arg-Phe-Ser-Tyr-Pro-amide ({Acetyl(1-pyrenyl)}-[βAla]GRTGRRFSYP-NH2; SMILES C[C@@H](O)[C@H](NC(=O)[C@H](CCCNC(=N)N)NC(=O)CNC(=O)CCNC(=O)Cc1ccc2ccc3cccc4ccc1c2c34)C(=O)NCC(=O)N[C@@H](CCCNC(=N)N)C(=O)N[C@@H](CCCNC(=N)N)C(=O)N[C@@H](Cc1ccccc1)C(=O)N[C@@H](CO)C(=O)N[C@@H](Cc1ccc(O)cc1)C(=O)N1CCC[C@H]1C(N)=O) [Peptide P6]”: the “% Fluorescence Enhancement” value in assay [5] is 49%. For `Cc1cc(-c2ccc(/N=N/c3ccc4c(S(=O)(=O)O)cc(S(=O)(=O)O)c(N)c4c3O)c(C)c2)ccc1/N=N/c1ccc2c(S(=O)(=O)O)cc(S(=O)(=O)O)c(N)c2c1O` [Peptide D3, Evans Blue], the Kd in assay [2] turned out to be 2.8 ± 0.8 µM.

As for “GRTGRRNAI-NH2 (C-terminus assumed) [PKI 14-22]”, the values for the IC50 in assay [6] and in assay [7] were 1.1 ± 0.1 µM and 1.6 ± 0.2 µM, respectively. As to “Ac-Gly-Arg-Dap(Pyr)-Gly-Arg-Arg-Phe-Ser-Tyr-Pro-amide [Peptide P4]”, the “% Fluorescence Enhancement” value in assay [5] was 40%. As to “Pyr-Abu-Gly-Arg-Thr-Gly-Arg-Arg-Phe-Ser-Tyr-Pro-amide ({Acetyl(1-pyrenyl)}-[Abu]GRTGRRFSYP-NH2; SMILES CC[C@H](NC(=O)Cc1ccc2ccc3cccc4ccc1c2c34)C(=O)NCC(=O)N[C@@H](CCCNC(=N)N)C(=O)N[C@H](C(=O)NCC(=O)N[C@@H](CCCNC(=N)N)C(=O)N[C@@H](CCCNC(=N)N)C(=O)N[C@@H](Cc1ccccc1)C(=O)N[C@@H](CO)C(=O)N[C@@H](Cc1ccc(O)cc1)C(=O)N1CCC[C@H]1C(N)=O)[C@@H](C)O) [Peptide P7]”, the “% Fluorescence Enhancement” value in assay [5] was 47%. For “phosphorylated peptide P2, Ac-GRTGRRDap(Pyr)SYP-amide after phosphorylation of Ser by PKA”, in assay [1], the % Fluorescence Enhancement (phosphorylation-induced, PKA + ATP + 14-3-3τ, no quenching dye) was 51%; the Fluorescence Change (phosphorylation-induced fold-change), P2/Ponceau S (1:50), plate reader - bottom read worked out at 7 fold; the Fluorescence Change (phosphorylation-induced fold-change), P2/Ponceau S (1:50), plate reader - top read amounted to 15 fold; the Fluorescence Change (phosphorylation-induced fold-change), P2/Ponceau S (1:50), spectrofluorimeter was 21 fold.

In the case of GRTGRRF[pS]YP (also: 7-diethylaminocoumarin-3-carboxylic acid label, site not given here) [coumarin-peptide P12 after phosphorylation], in assay [8], the “enhancement in fluorescence (16 µM P12, 10 µM 14-3-3, 30 µM Acid Green 27)” value came to 225 fold.

The term IC50 denotes the concentration that inhibits the measured activity by half.
